In experiment [1] the target is Anti-σ domain (ASD) of Mycobacterium tuberculosis RslA (residues 1–108), Zn2+-bound (Mycobacterium tuberculosis) (UniProt P9WJ67). As to the kind of experiment: crystal structure.
The target in experiment [2] is RsrA (Streptomyces coelicolor) (UniProt Q7AKG8). The settings on record: cited from earlier work.

As usually defined, the stoichiometry N is a count of units in the complex or per binding partner. One may read the Kd as the free concentration of one partner at which half of the binding sites on the other are occupied at equilibrium, for simple one-to-one binding.

Sequence of Anti-σ domain (ASD) of Mycobacterium tuberculosis RslA (residues 1–108), Zn2+-bound (Mycobacterium tuberculosis) (P9WJ67 1-108): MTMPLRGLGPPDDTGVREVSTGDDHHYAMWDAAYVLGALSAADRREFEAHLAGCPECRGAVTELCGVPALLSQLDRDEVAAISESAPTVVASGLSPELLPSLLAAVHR
Sequence of RsrA (Streptomyces coelicolor) (Q7AKG8 whole entry): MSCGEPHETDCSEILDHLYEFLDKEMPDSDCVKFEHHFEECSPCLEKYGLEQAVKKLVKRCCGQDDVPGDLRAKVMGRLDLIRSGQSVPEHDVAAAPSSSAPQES
Sequence of σR (Q7AKG9 whole entry): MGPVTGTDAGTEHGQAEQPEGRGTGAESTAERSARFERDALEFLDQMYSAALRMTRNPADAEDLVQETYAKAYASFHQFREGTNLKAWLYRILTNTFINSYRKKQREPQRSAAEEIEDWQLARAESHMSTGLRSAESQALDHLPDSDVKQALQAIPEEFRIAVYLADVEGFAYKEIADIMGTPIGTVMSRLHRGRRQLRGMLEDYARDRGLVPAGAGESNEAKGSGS

The substance “σ4^L, the −35-element recognition domain of Mycobacterium tuberculosis σ^L (from UniProt P9WGH5 99-177) (domain or fragment)” showed a stoichiometry N in experiment [1] of 1.

For σR (from UniProt Q7AKG9), the dissociation constant Kd in experiment [2] was 0.01 µM.

Source of the values: paper PMC2877774.
